In publication PMC3114436 (Molecular cell, 2008):
One block for each molecule: values may come before it. No end group written: not given here.

Legend:
Caulobacter ClpS = Caulobacter ClpS (Caulobacter vibrioides, UniProt Q9A5I0); assay: ClpS binding assay by fluorescence anisotropy; parameters: species or system Caulobacter crescentus; settings: Fig. 3B
[1] = biological target: peptides with Tyr, Trp, Phe, or Leu at the N-terminus; assay: fluorescence polarisation
[2] = biological target: T1, C. crescentus ClpS residues 35-119 (Caulobacter crescentus, UniProt Q9A5I0 35-119); assay: crystal structure
T1 sequence (looked up): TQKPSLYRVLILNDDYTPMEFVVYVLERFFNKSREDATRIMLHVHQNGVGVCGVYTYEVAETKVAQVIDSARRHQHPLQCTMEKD

[3] = biological target: T1, C. crescentus ClpS residues 35-119; assay: fluorescence polarisation

Molecule: Xxx-Leu-Phe-Val-Gln-Tyr-His6-Cys [Tyr peptide]
- affinity for Caulobacter ClpS (in words) (Caulobacter ClpS): sub-micromolar

B1: E. coli ClpS D36A (natural protein)
chain: MGKTNDWLDFDQLAEEKVRDALKPPSMYKVILVNDAYTPMEFVIDVLQKFFSYDVERATQLMLAVHYQGKAICGVFTAEVAETKVAMVNKYARENEHPLLCTLEKA
- KM of ClpAP degradation of Tyr-GFP with the ClpS variant (900 nM), fold increase (Tyr-GFP): 2 fold

B2: E. coli ClpS H66A (natural protein)
chain: MGKTNDWLDFDQLAEEKVRDALKPPSMYKVILVNDDYTPMEFVIDVLQKFFSYDVERATQLMLAVAYQGKAICGVFTAEVAETKVAMVNKYARENEHPLLCTLEKA
- KM of ClpAP degradation of Tyr-GFP with the ClpS variant (900 nM), fold increase (Tyr-GFP): 5 fold

B3: C. crescentus ClpS residues 35-119 (domain or fragment)
chain: TQKPSLYRVLILNDDYTPMEFVVYVLERFFNKSREDATRIMLHVHQNGVGVCGVYTYEVAETKVAQVIDSARRHQHPLQCTMEKD
- Kd [1]: 150 to 500 nM

Molecule: YLFVQRDSKE [N-end rule decapeptide Tyr-Leu-Phe-Val-Gln-Arg-Asp-Ser-Lys-Glu]
- binding result [2]: binds

Molecule: FLFVQYHHHHHHC(fluorescein maleimide) [fluorescein-labelled N-end rule peptide Phe-Leu-Phe-Val-Gln-Tyr-His6-Cys]
- binding result [3]: binds

Next, values leading:

- Kd [3]: ~400 nM
Molecule: YLFVQYHHHHHHC(fluorescein maleimide) [fluorescein-labelled N-end rule peptide Tyr-Leu-Phe-Val-Gln-Tyr-His6-Cys]

- binding result [3]: binds
Molecule: WLFVQYHHHHHHC(fluorescein maleimide) [fluorescein-labelled N-end rule peptide Trp-Leu-Phe-Val-Gln-Tyr-His6-Cys]

- binding result [3]: binds
Molecule: LLFVQYHHHHHHC(fluorescein maleimide) [fluorescein-labelled N-end rule peptide Leu-Leu-Phe-Val-Gln-Tyr-His6-Cys]
